Laboratory results taken from IntAct's records for PubMed 15604664.

B1: Floral homeotic protein … (Arabidopsis thaliana (Mouse-ear cress)), P48007 (parent)
chain: MGRGKIEIKRIENANNRVVTFSKRRNGLVKKAKEITVLCDAKVALIIFASNGKMIDYCCPSMDLGAMLDQYQKLSGKKLWDAKHENLSNEIDRIKKENDSLQLELRHLKGEDIQSLNLKNLMAVEHAIEHGLDKVRDHQMEILISKRRNEKMMAEEQRQLTFQLQQQEMAIASNARGMMMRDHDGQFGYRVQPIQPNLQEKIMSLVID

Variants of: B1
Settings: with sep3_arath SEP3, O22456
sep3_arath SEP3, O22456, sequence (O22456 whole entry): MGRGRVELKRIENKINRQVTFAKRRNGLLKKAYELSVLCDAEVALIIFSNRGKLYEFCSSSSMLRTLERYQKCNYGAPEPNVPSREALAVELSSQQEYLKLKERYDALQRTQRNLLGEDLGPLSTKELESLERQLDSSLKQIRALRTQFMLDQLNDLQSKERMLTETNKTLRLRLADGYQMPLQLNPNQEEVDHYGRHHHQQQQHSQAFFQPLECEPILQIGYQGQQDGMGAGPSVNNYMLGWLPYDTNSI

Variant	effect of a mutation on the interaction
MGRGKIEIKRIENANNRVVTFSKRRNGLVKKAKEITVLCDAKVALIIFASNGKMIDYCCPSMDLGAMLDQYQKLSGKKLWDAKHENLSNEIDRIKKENDSLQLELRHLKGEDIQSLNLKNLMAVEHAIEHPLDKVRDHQMEILISKRRNEKMMAEEQRQLTFQLQQQEMAIASNARGMMMRDHDGQFGYRVQPIQPNLQEKIMSLVID [G131P]	decreasing interaction
MGRGKIEIKRIENANNRVVTFSKRRNGLVKKAKEITVLCDAKVALIIFASNGKMIDYCCPSMDLGAMLDQYQKLSGKKLWDAKHENLSNEIDRIKKENDSLQLELRHLKGEDIQSPNLKNLMAVEHAIEHGLDKVRDHQMEILISKRRNEKMMAEEQRQLTFQLQQQEMAIASNARGMMMRDHDGQFGYRVQPIQPNLQEKIMSLVID [L116P]	decreasing interaction
MGRGKIEIKRIENANNRVVTFSKRRNGLVKKAKEITVLCDAKVALIIFASNGKMIDYCCPSMDLGAMLDQYQKLSGKKLWDAKHENLSNEIDRIKKENDSLQLELRHLKPEDIQSLNLKNLMAVEHAIEHGLDKVRDHQMEILISKRRNEKMMAEEQRQLTFQLQQQEMAIASNARGMMMRDHDGQFGYRVQPIQPNLQEKIMSLVID [G110P]	decreasing interaction
MGRGKIEIKRIENANNRVVTFSKRRNGLVKKAKEITVLCDAKVALIIFASNGKMIDYCCPSMDLGAMLDQYQKLSGKKLWDAKHENLSNEIDRIKKENDSLQPELRHLKGEDIQSLNLKNLMAVEHAIEHGLDKVRDHQMEILISKRRNEKMMAEEQRQLTFQLQQQEMAIASNARGMMMRDHDGQFGYRVQPIQPNLQEKIMSLVID [L103P]	decreasing interaction
MGRGKIEIKRIENANNRVVTFSKRRNGLVKKAKEITVLCDAKVALIIFASNGKMIDYCCPSMDLGAMLDQYQKLSGKKLWDAKHENPSNEIDRIKKENDSLQLELRHLKGEDIQSLNLKNLMAVEHAIEHGLDKVRDHQMEILISKRRNEKMMAEEQRQLTFQLQQQEMAIASNARGMMMRDHDGQFGYRVQPIQPNLQEKIMSLVID [L87P]	decreasing interaction
MGRGKIEIKRIENANNRVVTFSKRRNGLVKKAKEITVLCDAKVALIIFASNGKMIDYCCPSMDLGAMLDQYQKLSGKKLWDAKHENLSNEIDRIKKENDSLPLELRHLKGEDIQSLNLKNLMAVEHAIEHGLDKVRDHQMEILISKRRNEKMMAEEQRQLTFQLQQQEMAIASNARGMMMRDHDGQFGYRVQPIQPNLQEKIMSLVID [Q102P]	decreasing interaction

Now from value to variant:

effect of a mutation on the interaction	Variant
increasing interaction	MGRGKIEIKRIENANNRVVTFSKRRNGLVKKAKEITVLCDAKVALIIFASNGKMIDYCCPSMDLGAMLDQYQKLSGKKLWDAKHENLSNEIDRIKKENDSLQLELRHLKGEDIQSLNLKNLMAVEHAIEHGLDKVRDHQMEILISKRRPEKMMAEEQRQLTFQLQQQEMAIASNARGMMMRDHDGQFGYRVQPIQPNLQEKIMSLVID [N149P]
decreasing interaction	MGRGKIEIKRIENANNRVVTFSKRRNGLVKKAKEITVLCDAKVALIIFASNGKMIDYCCPSMDLGAMLDQYQKLSGKKLWDAKHENLSNEIDRIKKENDSLQLELRHLKGEDIQSLNLKNLMAVEHAIEHGLDKVRDHQMEILIPKRRNEKMMAEEQRQLTFQLQQQEMAIASNARGMMMRDHDGQFGYRVQPIQPNLQEKIMSLVID [S145P]
decreasing interaction	MGRGKIEIKRIENANNRVVTFSKRRNGLVKKAKEITVLCDAKVALIIFASNGKMIDYCCPSMDLGAMLDQYQKLSGKKLWDAKHENLSNEIDRIKKENDSLQLELRHLKGEDIQSLNLKNLMAVEHAIEHGLDKVRDHQMEILISKRRNEKMPAEEQRQLTFQLQQQEMAIASNARGMMMRDHDGQFGYRVQPIQPNLQEKIMSLVID [M153P]
decreasing interaction	MGRGKIEIKRIENANNRVVTFSKRRNGLVKKAKEITVLCDAKVALIIFASNGKMIDYCCPSMDLGAMLDQYQKLSGKKLWDAKHENLSNEIDRIKKENDSLQLELRHLKGEDIQSLNLKNLMAVEHAIEHGLDKVRDHQMEPLISKRRNEKMMAEEQRQLTFQLQQQEMAIASNARGMMMRDHDGQFGYRVQPIQPNLQEKIMSLVID [I142P]
decreasing interaction	MGRGKIEIKRIENANNRVVTFSKRRNGLVKKAKEITVLCDAKVALIIFASNGKMIDYCCPSMDLGAMLDQYQKLSGKKLWDAKHENLSNEIDRIKKENDSLQLELRHLKGEDIQSLNLKNLMAVEHAIEHGLDKVRDHQMEILISKRRNEKMMPEEQRQLTFQLQQQEMAIASNARGMMMRDHDGQFGYRVQPIQPNLQEKIMSLVID [A154P]
decreasing interaction	MGRGKIEIKRIENANNRVVTFSKRRNGLVKKAKEITVLCDAKVALIIFASNGKMIDYCCPSMDLGAMLDQYQKLSGKKLWDAKHENLSNEIDRIKKENDSLQLELRHLKGEDIQSLNLKNLMAVEHAIEHGPDKVRDHQMEILISKRRNEKMMAEEQRQLTFQLQQQEMAIASNARGMMMRDHDGQFGYRVQPIQPNLQEKIMSLVID [L132P]
increasing interaction	MGRGKIEIKRIENANNRVVTFSKRRNGLVKKAKEITVLCDAKVALIIFASNGKMIDYCCPSMDLGAMLDQYQKLSGKKLWDAKHENLSNEIDRIKKENDSLQLELRHLKGEDIQSLNLKNLMAVEHAIEHGLDKVRDHQMEILISKRRNEKMMAEEQRQPTFQLQQQEMAIASNARGMMMRDHDGQFGYRVQPIQPNLQEKIMSLVID [L160P]
